Reference: patent US20060292672

Target: T1, rhPTH(1-34)Gly35-OH, P01270
T1 chain: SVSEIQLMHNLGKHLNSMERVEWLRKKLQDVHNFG

B1: peptidylglycine alpha-amidating monooxygenase expressed by cell line UGL 73-26/M (protein)
chain: FRSPLSVFKRFKETTRSFSNECLGTIGPVTPLDASDFALDIRMPGVTPKESDTYFCMSMRLPVDEEAFVIDFKPRASMDTVHHMLLFGCNMPSSTGSYWFCDEGTCTDKANILYAWARNAPPTRLPKGVGFRVGGETGSKYFVLQVHYGDISAFRDNHKDCSGVSVHLTRVPQPLIAGMYLMMSVDTVIPPGEKVVNADISCQYKMYPMHVFAYRVHTHHLGKVVSGYRVRNGQWTLIGRQNPQLPQAFYPVEHPVDVTFGDILAARCVFTGEGRTEATHIGGTSSDEMCNLYIMYYMEAKYALSFMTCTKNVAPDMFRTIPAEANIPIPVKPDMVMMHGHHKEAENKEKSALMQQPKQGEEEVLEQDFHVEEELDWPGVYLLPGQVSGVALDSKNNLVIFHRGDHVWDGNSFDSKFVYQQRGLGPIEEDTILVIDPNNAEILQSSGKNLFYLPHGLSIDTDGNYWVTDVALHQVFKLDPHSKEGPLLILGRSMQPGSDQNHFCQPTDVAVEPSTGAVFVSDGYCNSRIVQFSPSGKFVTQWGEESSGSSPRPGQFSVPHSLALVPHLDQLCVADRENGRIQCFKTDTKEFVREIKHASFGRNVFAISYIPGFLFAVNGKPYFGDQEPVQGFVMNFSSGEIIDVFKPVRKHFDMPHDIVASEDGTVYIGDAHTNTVWKFTLTEKMEHRSV
  overall yield of rhPTH(1-34)-NH2 from enzymatic amidation (preparative reaction followed by CEX and RP purification): yielding 11.8 grams (95% overall yield from amidation) of rhPTH(1-34)-NH2
